Common to all, as to assay type: cell-based, mouse
One test has as its system pZscan4-Emerald ESCs. Kind of test: FACS analysis of Zscan4-Emerald ESCs (Emerald-GFP positive cells). The protocol: (§1) All treatments including APH, HU, UV, ATRi, ATMi and Chk1i were added in to fresh ESC medium and the cells were kept in 37° C. and 3% 02 tension for overnight (16-17 hrs) unless mentioned in each particular result section. APH was used at various concentrations ranging from 0.3 uM to 6 uM that is mentioned in each experiment in order to induce mild to acute replication stress response. Similarly, HU was used at 0.1 mM-3 mM. ATMi (KU-55933) and ATRi (VE 822) were used at the concentration of 10 uM and 1 uM respectively. Moreover, Chk1i (UCN-01) at the concentration of 100 nM was used. UV radiation was performed at the dosage ranging from 2 to 10 J/m2. For induction of ETAA1-AAD expression, Dox was used at the concentration of 1 μg/mL for 48 hrs.
ESCs were fixed and permeabilized using Cytoperm/Cytofix kit (BD Biosciences), and subsequently stained for one hour at room temperature with Alexa Fluor® 647 anti-H2AX-Phosphorylated (Ser139) antibody (Biolegend) or P-CHK1-PE conjugated antibody (cell signaling 12268). Cells were washed and acquired on a FACS Calibur instrument or Attune NxT (Thermo Fisher Scientific). For Emerald-GFP acquisition, cells were trypsinized, collected and subsequently acquired without fixation. Cell cycle profiles were acquired after incubation with DAPI (4′,6-diamidino-2-phenylindole) overnight. […]
In general terms: In flow cytometry, cells or beads pass a laser one at a time.

In test [1] the test system is 2C-like genes (Zscan4, MuERV-L/MERVL, Dux) in ESCs (E14, R1). Kind of test: qPCR for 2C-like specific genes in ESCs. As to conditions: Dox-inducible expression of ETAA1-AAD. The protocol:
as §1
RNA was extracted using RNeasy mini kit (QIAGEN), quantified by NanoDrop spectrophotometer and cDNA was prepared from 2 μg total DNA-depleted RNA using SuperScript™ III reverse transcriptase kit (Invitrogen cat #18080-093) following manufacturer's instructions. qPCR assay performed based on standard protocol using 10× SsoFast™ EvaGreen® Supermix or later 1× LightCycler 480 SYBR Green I Master (Roche, 04707516001), 0.5 μM primer mix and 5 ng of cDNA. GAPDH was used as internal control to normalise the qPCR data following ΔΔCt method, 10 μM primer mix and a total amount of cDNA corresponding to 5 ng of starting RNA for each reaction.
(In general: In qPCR the cycle at which signal appears reflects the starting amount.)

In test [2] the test system is ATR pathway (γH2AX, CHK1, CHK2 phosphorylation). The test can be described thus: FACS and immunoblot for ATR pathway activation upon ETAA1-AAD overexpression. The note with it: for number of γH2AX positive cells: versus empty vector (EV) infected ESCs. From the text:
ESCs were fixed and permeabilized using Cytoperm/Cytofix kit (BD Biosciences), and subsequently stained for one hour at room temperature with Alexa Fluor® 647 anti-H2AX-Phosphorylated (Ser139) antibody (Biolegend) or P-CHK1-PE conjugated antibody (cell signaling 12268). Cells were washed and acquired on a FACS Calibur instrument or Attune NxT (Thermo Fisher Scientific). For Emerald-GFP acquisition, cells were trypsinized, collected and subsequently acquired without fixation. Cell cycle profiles were acquired after incubation with DAPI (4′,6-diamidino-2-phenylindole) overnight. For Caspase3 FACS analysis after fixation and permeabilization, Cleaved Caspase3 antibody were used for one hr at RT followed by washes and one hr incubation in donkey anti rabbit secondary antibody. […]
The cells were trypsinized and washed with PBS and then lysed in RIPA buffer plus protease/phosphatase inhibitor cocktail (cell signaling, #5872), incubating for 30 minutes on a rotating wheel at +4° C. Lysates were sonicated with a Bioruptor Sonication System (UCD200) at high power for 3 cycles of 30 seconds with one minute breaks. Lysates were centrifuged at 13000 rpm for 20-30 minutes and clear supernatants were transferred to new tubes. The proteins were quantified using Bio-Rad protein assay and following manufacturer's instructions. For the detection of each protein, 35 μg of total protein extracts were loaded. Standard western blot was performed using following antibodies: ATR antibody (Cell Signaling 2790), Phoshpho-Chk1 antibody-S345 (Cell signaling 2348), Phoshpho-Chk1 antibody S317 (cell signaling 12302), Zscan4 antibody (Abcam ab4340), total Chk1 antibody (Santa Cruz 8408) and Chk2 antibody (Millipore 05-649), Anti-P53 (Cell Signalling, 2524S) and Anti-p-P53 (S15) (Cell Signalling, 12571S), Anti-Goat ALexa488 (Thermo Fisher Scientific, A-11055), Anti-Rabbit Cy3 (Jackson ImmunoResearch, 711-165-152), Anti-Mouse Alexa647 (Thermo Fisher Scientific, A-31571). […]

B1: ETAA1-AAD: ATR activating domain of Ewing's tumor-associated antigen 1, overexpressed in ESCs by lentivirus (SEQ ID NO: 2) (protein)
chain: VRQREQPPTAALCSKSNPEERYETPKRALKMETDSLSSSFSSPNDPDGQNDIFWDQNSPLTKQLGKGRKKQIYTTDSDEISHIVNRIAPQDEKPTTNSMETLDMETWIGETAIPCTPSVAKGKSRAKISCTKLKTQSQEEELMETKLAKQFDKNMETEELDVIQEQNKRNYDFTQ
For the molecule B1, in the test with pZscan4-Emerald ESCs (Dox-inducible expression of ETAA1-AAD), the “Z+ population in ESCs culture” value was “significant increase”. Also, the “increase in the number of Zscan4-positive population in ESC culture” value with pZscan4-Emerald ESCs (ETAA1-AAD lentivirus infected Zscan4-Emerald ESCs vs empty vector) is given as “up to 3 fold”. In addition, the “transcription of Zscan4, Dux and MERVL” value in test [1] is “transcriptional activation of Zscan4, Dux and MERVL”. Also, the “phosphorylation of H2AX, CHK1 and CHK2 in ESCs” value in test [2] (ATR activation through ETAA1 expression) was “leads to the phosphorylation of H2AX and CHK1 but not CHK2”. Besides, the figures for the “number of γH2AX positive cells” value in test [2] and in test [2] (listed as ETAA1-AAD lentivirus) were “increase in the number of γH2AX cells” and “increase in the number of γH2AX positive cell”, respectively.

The record behind these values is patent publication US20200131473A1, “METHOD OF GENERATING 2 CELL-LIKE STEM CELLS” (IFOM FONDAZIONE ISTITUTO FIRC DI ONCOLOGIA MOLECOLARE, priority 2017, published 2020).
